According to paper doi:10.1101/2021.01.06.425396:

Biological target: T1, tetherin (Bst2), endogenous (human (endogenous in HeLa)), Q10589
T1 chain: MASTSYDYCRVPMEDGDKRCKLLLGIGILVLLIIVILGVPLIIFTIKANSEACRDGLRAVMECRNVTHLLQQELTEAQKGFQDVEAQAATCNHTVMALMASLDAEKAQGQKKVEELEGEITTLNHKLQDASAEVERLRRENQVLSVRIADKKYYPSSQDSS
Assay: non-reducing SDS-PAGE and Western blot
Details: remark: other sources report otherwise

B1: tetherin (Bst2), endogenous, Q10589 1-161 (natural protein)
chain: MASTSYDYCRVPMEDGDKRCKLLLGIGILVLLIIVILGVPLIIFTIKANSEACRDGLRAVMECRNVTHLLQQELTEAQKGFQDVEAQAATCNHTVMALMASLDAEKAQGQKKVEELEGEITTLNHKLQDASAEVERLRRENQVLSVRIADKKYYPSSQDSS
  stoichiometry N: 2
